According to publication PMC7395514:

Target: Celsr3 (UniProt Q91ZI0)
Experiment: co-immunoprecipitation, both in same cell
Conditions: reference: Fzd3 wild type; sites T598

binding against the reference: weaker
Substance: Frizzled3 (Fzd3) (from UniProt Q61086) Fzd3 T598A
